Measurements as given in patent publication EP4039268A1 (IMBA-Institut für Molekulare Biotechnologie GmbH, dated 2022).

Legend:
[1] = target: T1, human recombinant soluble ACE2 (human, UniProt Q9BYF1 18-740); assay: ELISA
T1 construct: also called hrsACE2

[2] = target: T2, full-length trimeric SARS-CoV-2 Spike protein (Spike-H6) (SARS-CoV-2, N-glycosylated (22 N-glycosylation sites)); assay: ELISA screen
T2 construct: also called trimeric Spike; full-length Spike-H6

[3] = target: T1, human recombinant soluble ACE2; assay: ELISA screen
[4] = target: T2, full-length trimeric SARS-CoV-2 Spike …; assay: AFM single molecule force spectroscopy, Evans model
[5] = target: T2, full-length trimeric SARS-CoV-2 Spike …; assay: inhibition of Spike binding to Vero E6 cells, AFM
[6] = target: T2, full-length trimeric SARS-CoV-2 Spike …; assay: SPR, Spike immobilized, bivalent analyte model, first binding step

T1 sequence (Q9BYF1 18-740 limits assumed): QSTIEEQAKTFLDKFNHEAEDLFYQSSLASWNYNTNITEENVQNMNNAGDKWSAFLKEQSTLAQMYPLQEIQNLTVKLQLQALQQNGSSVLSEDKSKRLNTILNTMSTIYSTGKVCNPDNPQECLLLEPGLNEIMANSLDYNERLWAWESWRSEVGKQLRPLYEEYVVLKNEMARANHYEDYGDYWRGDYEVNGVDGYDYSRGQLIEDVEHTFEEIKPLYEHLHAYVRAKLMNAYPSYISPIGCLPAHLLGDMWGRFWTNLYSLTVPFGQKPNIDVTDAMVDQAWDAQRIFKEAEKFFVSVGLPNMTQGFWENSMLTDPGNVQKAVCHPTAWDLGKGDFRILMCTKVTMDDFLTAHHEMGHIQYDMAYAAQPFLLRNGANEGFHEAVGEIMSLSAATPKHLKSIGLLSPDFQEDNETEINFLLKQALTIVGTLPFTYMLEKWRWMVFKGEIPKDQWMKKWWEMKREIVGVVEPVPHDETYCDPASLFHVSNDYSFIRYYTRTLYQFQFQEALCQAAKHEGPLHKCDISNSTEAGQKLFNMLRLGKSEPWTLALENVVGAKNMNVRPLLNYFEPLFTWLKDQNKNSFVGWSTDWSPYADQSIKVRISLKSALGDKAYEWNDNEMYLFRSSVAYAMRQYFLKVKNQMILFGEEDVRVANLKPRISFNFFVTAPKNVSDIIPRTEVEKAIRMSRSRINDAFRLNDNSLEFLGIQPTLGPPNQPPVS

B1: Clec4g CRD-mouse IgG2a-Fc fusion protein (Fc fusion)
chain: FQGSCYYFSETQATWDTAQSYCGGQGAHLVIVRGLNEQGFLSQHTRGRGYWLGLRAVRHLNKIQGYRWVDGASLNFSHWNSGEPNDSRGHEDCIMMLHSGLWNDAPCTNERDGWICGGGSGGGSGGGS
- binding result [1]: no binding (tested: 10 µg/ml)
- Mean normalized OD [2]: 1.68 OD
- Mean normalized OD [3]: 0.04 OD
- koff [4]: 0.037 s⁻¹
- Ki [5]: 35 to 70 nM
- Kd [6]: 1620 nM
- koff [6]: 0.0997 s⁻¹
- kon [6]: 61700 M⁻¹ s⁻¹
